# Data as given in the nanobody polyreactivity screen of Harvey et al. (2022).
# Experiment: yeast display, Sf9 membrane polyspecificity reagent, FACS + sequencing; frameworks hold sequencing errors
# Summary of the method: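 In a synthetic yeast display library (Saccharomyces cerevisiae BJ5465), nanobody expression was induced with galactose for 36–48 hours. FACS gates were set low and high (top ~1%) using anti-HA fluorescence for expression and streptavidin fluorescence for binding of the Sf9 membrane reagent. Each polyreactivity label is drawn from the gate of origin.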
row,Sequence,polyreactivity (PSR sort gate)
1,QVQLVESGGGLVQAGGRLRLSCAASGSIFGEYAMGWYRQAPGKERELVADITTGGNTNYADSVKGRFTISRDNAKNTVYLQMNSLKPEDTAVYYCNAYGNTYGYWWFGYWGQGTQVTVSS,low polyreactivity
2,QVQLVESGGGLVQAGGRLRLSCAASGSIFGFYAMGWYRPAPGKERELVAGISVSDGSTYYADSVKGRFTISRDNAKNTVYLQMNSLKPEDTAVYYCAASPRGSYGYYYWGQGTQVTVSS,low polyreactivity
3,QVQLVESGGGLVQAGGRLRLSCAASGSIFITYAMGWYRQAPGKEMELVAAIRDSGDRTYYADSVKGRFTISRDNAKNTVYLQMNSLKPEDTAVYYCNARWQEPLKYDYWGQGTQVTVSS,low polyreactivity
4,QVQLVESGGGLVQAGGRLRLSCAASGSIFQYNAMGWSRQAPGKERELVAAISRSGGSTYYADSVKGRFTISRDNAKNTVYLQMNSLKPEDTAVYYCHAVLGYYSPYDYWGQGTQVTVSS,low polyreactivity
5,QVQLVESGGGLVQAGGRLRLSCAASGSIFRIYTMGWYRQEPGKERELVAAINSGGSTNYADSVKGRFTISRDNAKNTVYLQMNSLKPEDTAVYYCAATWWQYDQGLHRYDYWGQGTQVTVSS,high polyreactivity
6,QVQLVESGGGLVQAGGRLRLSCAASGSIFRSNAMGWYRLAPGKEREFVAASTRSGGSTYYADTVKGRFTISRDNAKNTVYLQMNSLKPAATAVYYCAADWKSYAYYYWGQGTQVTVSS,high polyreactivity
7,QVQLVESGGGLVQAGGRLRLSCAASGSIFSSNAMGWYRQAPGKERELVASIRGSGVSTYYADSVKGRFTISRDNAKNTVYLQMNSMKPEDTAVYYCAARYGRSYFGYYFWGQGTQVTVSS,high polyreactivity
8,QVQLVESGGGLVQAGGRLRLSCAASGSISASYAMGWSRQAPGKERELVAAITSGGSTYYADSVKGRFTFSRDNAKNTVYFQMNSLKPEETAVYYCAKRPKRTYYPHIGYDYWGQGTQVTVSS,low polyreactivity
9,QVQLVESGGGLVQAGGRLRLSCAASGSISYFNDMGWYRQAPGKERELVAAIRDSGGITYADSVKGRFTISRDNAKNTVYLQMNSLKPEDTAVYYCATYGNEIYDYWGQGTQVTVSS,low polyreactivity
10,QVQLVESGGGLVQAGGRLRLSCAASGSIVGLYVMGWYRQAPGKERELVATITSGGSTYYADSVKGRFTISRDNAKNTDYLQMNSLKPEDTAVYYSAADPQDAADLPDLFYDYDYWGQGTQVTVSS,low polyreactivity
11,QVQLVESGGGLVQAGGRLRLSCAASGSTFAIYGMGWYRQAPGKERELVAGITRGGSTNYADSVKGRFTISRDNAKNTVYLQMNSLKPEDTAVYYCNSPFGVRRFKTKGRSHYEYWGQGTQVTVSS,high polyreactivity
12,QVQLVESGGGLVQAGGRLRLSCAASGSTFEEYAMGWYRQAPGKERELVAGITWGGGSTYYADSVKGRFTISRDNAKNTVYLQMNSQKPEDTAVYYCAAEPGWYADTPASDSKYDYWGQGTQGTVSS,low polyreactivity
13,QVQLVESGGGLVQAGGRLRLSCAASGSTFGYYARGWYRQAPGKERELVAAISTSSGSKYFADSVKGRFTISRDNAKNTVYLQMNSLKPEDTAVYYCNARKASYRSIYYYWGQGTQVTVSS,high polyreactivity
14,QVQLVESGGGLVQAGGRLRLSCAASGSTFIDYAMGWYRPAPGKERELVAAITNGGNTKYADSVKGRFTISRDNAKNTVYLQMKSLKPEDTSVDYCSREPSIFTSSYDYWGQGTQVTVSS,low polyreactivity
15,QVQLVESGGGLVQAGGRLRLSCAASGSTFIYYAMGWYRQAPGKERELVAAITGRGTRTYYADSVKGRFTISRDNAKNTVYLQMNSLKPEDTAVYYCNTLQTYLYDYWGQGTQVTVSS,high polyreactivity
16,QVQLVESGGGLVQAGGRLRLSCAASGSTFQRYAMGWYRQAPGKDRELVAAISSTGGSTFYADSVKGRFTISRDTAKNTVYLHMNSLKPEDTAVYYCNKYRATNSARDYWGQGTQVTVSS,high polyreactivity
17,QVQLVESGGGLVQAGGRLRLSCAASGSTFSDYAMGWYRQAPGKERELVADISRSGASTYYADSVKGRFTISRYNAKNTVYLQMNSLKPEDTPVYSSNKAYSGVRYDSWGPGTQVTVSS,low polyreactivity
18,QVQLVESGGGLVQAGGRLRLSCAASGSTFVWYAMVWYRQAPGKEREFVATISWSDGSTYYADSVKGRFTISRDNAKNTVYLQLNSLIPEDTAVYYCASDVDRFFTYKYDYWGQGTQVTVSS,low polyreactivity
19,QVQLVESGGGLVQAGGRLRLSCAASGSTIPRNAMGWYRHAPGKERELVAAITSGGSTNYADSVKGRFTISRDNAKNTVYLQMNSLKPEDTAVYYCAADEQVNTQYVVWGDYWGQGTQVTVSS,low polyreactivity
20,QVQLVESGGGLVQAGGRLRLSCAASGSTLIRNVMGWYRQAPGKERELVAAINTRGTTTYYADSVKGRFTISRDKAKNTVYLQMNSLKPEDTAVSYCAARTPHYSYGYWGQGTHVTVSS,high polyreactivity
21,QVQLVESGGGLVQAGGRLRLSCAASGSTLSGNAMGGYRQAPGKERELVAAITSSGGRTYYADSVKGRFTISRDNAKNTVYLQMNSLKPEDTAVYYCAKDRYGWGQGTQVTVSS,high polyreactivity
22,QVQLVESGGGLVQAGGRLRLSCAASGSTSQSNAMGWYRQAPGKERELVAAISWSGTSTYYADSVKGRFTISRDNAKNTVYLQMNSLKPEDTAVYYCAADYIFDYDYWGQGTQVTVSS,low polyreactivity
